Measurements taken from the Human Domainome abundance scans (Beltran et al. 2025).

B1: Neutrophil cytosol factor 2, residues 456 to 514; numbered along this chain, P19878 (parent)
chain: LKKGSQVEALFSYEATQPEDLEFQEGDIILVLSKVNEEWLEGECKGKVGIFPKVFVEDC

Variants of: B1
Experiment: abundance fitness (aPCA) (normalised: wild type 0, dead -1); higher = more abundant; growth selection in yeast, the domain comes from the species named
Conditions: Homo sapiens

Abundance fitness: each site, then its substitutions
F55: E -0.821 | M 0.111 | I -0.599 | K -0.584 | T -0.133 | H -0.229 | D -0.409 | V 0.271 | P -0.145 | S -0.753 | Y 0.152 | C 0.597 | G -0.486 | N -0.522 | R -0.521 | L 0.207 | W -0.529
V56: E -0.415 | G -0.713 | I -0.81 | W -0.46 | Q -0.581 | F -0.255 | H -0.624 | T -0.457 | P -1.09 | C -0.52 | L -0.589 | K -0.637 | D -0.412 | Y -0.574 | N -0.439 | A -0.719 | R -0.637
E57: S 0.271 | N -0.194 | I -0.697 | V -0.198 | Q 0.541 | K 0.201 | F -0.607 | D -0.254 | W -0.033 | R 0.865 | T 0.487 | H -0.084 | L -0.505 | P -0.28 | G 0.005 | M -0.464 | C -0.15
D58: E 0.091 | Y -0.595 | V -0.138 | T 0.133 | K 0.351 | R 0.155 | C 0.313 | G 0.392 | P 0.214 | L -0.493 | Q -0.079 | S 0.022 | F -0.718 | M -0.203 | I -0.268
C59: A 0.057 | D -0.555 | P 0.078 | V 0.402 | R -0.173 | F -0.044 | N -0.242 | Y -0.204 | S -0.012 | L -0.112 | T 0.289 | I 0.153 | H -0.361 | G -0.64
